According to publication PMC12990809:

Tests used:
Assay in all cases: pulldown
PRR3 (Homo sapiens) = target: T1, PRR3 (Homo sapiens) (UniProt P79522); details: 20 nM protein, 1.5 uM RNA pool; 20 mM HEPES pH 7.8, 70 mM KCl, 10 mM NaCl, 10% glycerol, 2 mM DTT, 0.1 ug/uL BSA; 30 min, 4 C
T1 sequence: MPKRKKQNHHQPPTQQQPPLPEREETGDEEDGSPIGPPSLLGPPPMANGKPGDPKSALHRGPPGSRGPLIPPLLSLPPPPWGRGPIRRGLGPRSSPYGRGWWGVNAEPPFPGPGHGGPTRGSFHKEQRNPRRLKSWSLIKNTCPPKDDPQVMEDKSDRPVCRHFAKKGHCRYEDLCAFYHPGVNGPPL

[1] = target: T2, qkr58E-2 (Drosophila melanogaster) (UniProt Q5BID2); details: 20 nM protein, 1.5 uM RNA pool; 20 mM HEPES pH 7.8, 70 mM KCl, 10 mM NaCl, 10% glycerol, 2 mM DTT, 0.1 ug/uL BSA; 30 min, 4 C
T2 sequence: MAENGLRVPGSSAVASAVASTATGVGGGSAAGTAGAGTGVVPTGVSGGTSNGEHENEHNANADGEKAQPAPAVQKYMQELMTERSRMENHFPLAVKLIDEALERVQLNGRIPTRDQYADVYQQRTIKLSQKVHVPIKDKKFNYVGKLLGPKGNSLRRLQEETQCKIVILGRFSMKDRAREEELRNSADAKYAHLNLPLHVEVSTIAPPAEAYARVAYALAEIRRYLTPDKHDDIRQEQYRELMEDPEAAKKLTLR

[2] = target: T3, PF14_0151 (Plasmodium falciparum) (UniProt Q8ILU3); details: 20 nM protein, 1.5 uM RNA pool; 20 mM HEPES pH 7.8, 70 mM KCl, 10 mM NaCl, 10% glycerol, 2 mM DTT, 0.1 ug/uL BSA; 30 min, 4 C
T3 sequence: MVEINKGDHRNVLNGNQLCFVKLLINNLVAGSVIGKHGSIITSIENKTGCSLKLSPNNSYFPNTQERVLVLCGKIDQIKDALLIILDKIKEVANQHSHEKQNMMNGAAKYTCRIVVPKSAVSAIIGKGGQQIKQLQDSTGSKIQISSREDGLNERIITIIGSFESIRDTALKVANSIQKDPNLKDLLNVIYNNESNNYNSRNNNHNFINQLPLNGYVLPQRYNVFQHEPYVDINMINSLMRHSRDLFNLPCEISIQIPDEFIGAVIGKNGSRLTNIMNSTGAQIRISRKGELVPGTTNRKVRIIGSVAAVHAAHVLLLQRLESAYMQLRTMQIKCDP

[3] = target: T4, PK01594.1 (Cannabis sativa) (UniProt A0A803NG34); details: 20 nM protein, 1.5 uM RNA pool; 20 mM HEPES pH 7.8, 70 mM KCl, 10 mM NaCl, 10% glycerol, 2 mM DTT, 0.1 ug/uL BSA; 30 min, 4 C
T4 sequence: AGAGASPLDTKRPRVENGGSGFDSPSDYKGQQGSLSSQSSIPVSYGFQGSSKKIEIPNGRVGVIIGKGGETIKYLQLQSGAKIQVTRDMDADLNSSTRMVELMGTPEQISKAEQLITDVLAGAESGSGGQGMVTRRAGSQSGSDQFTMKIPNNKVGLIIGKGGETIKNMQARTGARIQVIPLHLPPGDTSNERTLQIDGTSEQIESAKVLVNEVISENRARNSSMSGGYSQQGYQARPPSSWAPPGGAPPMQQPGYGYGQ

[4] = target: T5, rbm14 (Xenopus tropicalis) (UniProt A0A8J0QJ94); details: 20 nM protein, 1.5 uM RNA pool; 20 mM HEPES pH 7.8, 70 mM KCl, 10 mM NaCl, 10% glycerol, 2 mM DTT, 0.1 ug/uL BSA; 30 min, 4 C
T5 sequence: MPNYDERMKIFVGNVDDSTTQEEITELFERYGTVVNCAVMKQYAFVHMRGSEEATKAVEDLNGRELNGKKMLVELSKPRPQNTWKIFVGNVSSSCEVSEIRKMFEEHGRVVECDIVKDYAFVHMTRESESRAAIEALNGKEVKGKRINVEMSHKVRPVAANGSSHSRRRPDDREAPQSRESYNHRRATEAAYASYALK

[5] = target: T6, CG15440 (Drosophila melanogaster) (UniProt Q7KU43); details: 20 nM protein, 1.5 uM RNA pool; 20 mM HEPES pH 7.8, 70 mM KCl, 10 mM NaCl, 10% glycerol, 2 mM DTT, 0.1 ug/uL BSA; 30 min, 4 C
T6 sequence: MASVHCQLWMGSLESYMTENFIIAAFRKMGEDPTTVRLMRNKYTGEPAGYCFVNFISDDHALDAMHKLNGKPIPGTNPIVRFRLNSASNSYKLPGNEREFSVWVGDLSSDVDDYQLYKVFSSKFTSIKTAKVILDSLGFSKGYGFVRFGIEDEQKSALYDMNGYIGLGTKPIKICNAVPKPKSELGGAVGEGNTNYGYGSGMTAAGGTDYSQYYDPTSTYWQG

[6] = target: T7, Hrb27C (Drosophila melanogaster) (UniProt P48809); details: 20 nM protein, 1.5 uM RNA pool; 20 mM HEPES pH 7.8, 70 mM KCl, 10 mM NaCl, 10% glycerol, 2 mM DTT, 0.1 ug/uL BSA; 30 min, 4 C (protocol of this paper; not …); cited from earlier work
T7 sequence: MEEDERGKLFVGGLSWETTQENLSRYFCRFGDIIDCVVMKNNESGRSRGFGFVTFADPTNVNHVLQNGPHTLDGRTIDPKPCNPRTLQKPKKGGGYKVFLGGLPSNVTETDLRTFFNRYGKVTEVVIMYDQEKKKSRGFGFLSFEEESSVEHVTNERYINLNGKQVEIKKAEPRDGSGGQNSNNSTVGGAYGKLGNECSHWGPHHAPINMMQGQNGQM

[7] = target: T8, RNPC3 ins163_E (Gallus gallus) (UniProt A0A8V0ZU58); details: 20 nM protein, 1.5 uM RNA pool; 20 mM HEPES pH 7.8, 70 mM KCl, 10 mM NaCl, 10% glycerol, 2 mM DTT, 0.1 ug/uL BSA; 30 min, 4 C
T8 sequence: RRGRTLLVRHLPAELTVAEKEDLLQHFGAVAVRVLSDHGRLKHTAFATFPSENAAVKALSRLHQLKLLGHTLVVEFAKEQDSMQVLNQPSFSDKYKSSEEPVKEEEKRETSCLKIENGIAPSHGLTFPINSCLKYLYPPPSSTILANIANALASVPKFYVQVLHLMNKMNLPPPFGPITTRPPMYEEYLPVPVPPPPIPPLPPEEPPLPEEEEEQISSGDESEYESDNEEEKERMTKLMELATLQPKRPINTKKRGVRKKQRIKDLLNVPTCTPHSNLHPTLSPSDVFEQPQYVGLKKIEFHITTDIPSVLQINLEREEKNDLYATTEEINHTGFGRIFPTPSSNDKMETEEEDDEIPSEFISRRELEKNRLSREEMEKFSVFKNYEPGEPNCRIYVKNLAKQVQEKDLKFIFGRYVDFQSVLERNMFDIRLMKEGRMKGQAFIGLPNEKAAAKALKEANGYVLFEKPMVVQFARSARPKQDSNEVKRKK

[8] = target: PGTG_09691 (Puccinia graminis) (UniProt E3KI53); details: 20 nM protein, 1.5 uM RNA pool; 20 mM HEPES pH 7.8, 70 mM KCl, 10 mM NaCl, 10% glycerol, 2 mM DTT, 0.1 ug/uL BSA; 30 min, 4 C

## AUAAGC [RNAcompete motif RNCMPT00628]
PRR3 (Homo sapiens)
  binding signal (z-score (mean of top ten 7-mers)): 15.2

## AUAAUA [RNAcompete motif RNCMPT00637]
[1]
  binding signal (z-score (mean of top ten 7-mers)): 13

## AUACANA [RNAcompete motif RNCMPT00505]
[2]
  binding signal (z-score (mean of top ten 7-mers)): 8.57

## AUAUUGU [RNAcompete motif RNCMPT00478]
[3]
  binding signal (z-score (mean of top ten 7-mers)): 7.33

## CGACGA [RNAcompete motif RNCMPT00514]
[4]
  binding signal (z-score (mean of top ten 7-mers)): 10.1

## GAUAUU [RNAcompete motif RNCMPT00513]
[5]
  binding signal (z-score (mean of top ten 7-mers)): 13.9

## UAGGNUA [RNAcompete motif RNCMPT00093]
[6]
  binding signal (z-score (mean of top ten 7-mers)): 12.1

## UUACGUA [RNAcompete motif RNCMPT00630]
[7]
  binding signal (z-score (mean of top ten 7-mers)): 6.68

## UUGCAC [RNAcompete motif RNCMPT00482]
[8]
  binding signal (z-score (mean of top ten 7-mers)): 11.4
